The values that follow come from article PMC10976963.

The assay deals with actin of the cytoskeleton of living U2OS cells (human (endogenous in U2OS)) (UniProt P60709). Description: FRAP; fluorescence recovery after photobleaching at lamellipodia of living U2OS cells expressing mEGFP-DARPins or mCherry-LifeAct, 37 °C, single-exponential fit.

Consider mCherry-LifeAct (peptide), for which the FRAP half-recovery time (τ1/2) at lamellipodia is 0.47 s.
